Laboratory results published in article PMC9253517 (The Journal of Experimental Medicine, 2022).

Tests used:
[1] = biological target: T1, SARS-CoV-2 Wuhan-Hu-1 RBD (SARS-CoV-2, Wuhan-Hu-1 (GenBank …, UniProt P0DTC2)); assay: cell-based or functional assay
[2] = biological target: T1, SARS-CoV-2 Wuhan-Hu-1 RBD; assay: BLI; settings: both partners purified

B1: JR052 (antibody, V domains shown)
VH: QVQLVQSGAEVKKPGASVKVSCEASGYTFTTYHMHWVRQAPGQGLEWMGIINPSRGSANYAQKFQGRVTMTRDTSTRTVYMELSSLRSEDTALYYCARDPNYYDSSGHKIEYFQHWGQGTLVTVSS
VL: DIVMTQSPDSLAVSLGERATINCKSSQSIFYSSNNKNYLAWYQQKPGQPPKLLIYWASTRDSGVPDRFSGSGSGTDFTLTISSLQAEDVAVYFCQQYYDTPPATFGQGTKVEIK
Question: What does the source list for B1?
Answer: neutralisation IC50, Wuhan-Hu-1 pseudovirus [1]: 0.0239 µg/mL; binding result [2]: binds

B2: JR312 (antibody, V domains shown)
VH: QVQLVQSGAEVKKPGSSVKVSCKASGAKPSGVSFSSYAFNWVRRAPGQGLEWVGGIIPIFGPANYAQKFQGRVTITADESTSTAYMELSSLSSEDTAIYYCARERYCNSPDCYSWERGDFDVWGQGTMVTVSS
VL: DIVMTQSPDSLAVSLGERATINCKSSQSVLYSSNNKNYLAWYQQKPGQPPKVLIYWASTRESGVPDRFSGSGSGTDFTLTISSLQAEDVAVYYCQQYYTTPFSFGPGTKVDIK
Question: What does the source list for B2?
Answer: neutralisation IC50, Wuhan-Hu-1 pseudovirus [1]: 0.0271 µg/mL; binding result [2]: binds

B3: JR317 (antibody, V domains shown)
VH: QVQLVESGGGVVQPGKSLRLSCAASGFTFSSYGMHWVRQAPGKGLEWVAVIWYDGSNKYYADSVKGRFTISRDNSKSTLYVQMNSLRAEDTAVYYCARVRTIFRPLDYMDVWGKGTTVTVSS
VL: SYELTQPPSVSVAPGQTARITCGGNNIGSKSVHWYQQKPGQAPVLVVYDDSARPSGIPERFSGSNSGNAATLTISRVEAGDEADYYCQVWDRDYSSDHLWVFGGGTKLTVL
Question: Which results are given for B3?
Answer: neutralisation IC50, Wuhan-Hu-1 pseudovirus [1]: 0.0344 µg/mL; binding result [2]: binds

B4: JR099 (antibody, V domains shown)
VH: EVQLVESGGGLVQPGGSLRLSCAASGFTFSDYDMHWVRQVRGKGLEWLSIIGTAGDTYYPDSVKGRFTISRENAKNSLYLQMNSLRVGDTGVYYCARDRASTSGTDGMDVWGQGTTVTVSS
VL: DIQLTQSPSSLSASVGDRVTITCRASQSISRYLNWYQQRPGKAPKLLIYAAFTLESGVPSRFSGSGSGTDFTLTISSLQAEDFATYHCQQSYSTSALTFGGGTKVEIK
Question: Which “neutralisation IC50, Wuhan-Hu-1 pseudovirus” value (shortened to “neutralisation IC50”) [1] does the source give for B4 here?
Answer: 0.0463 µg/mL

Question: Does B4 bind [2]?
Answer: binds

B5: JR054 (antibody, V domains shown)
VH: QLQLQESGPRLMKPSETLSLTCSVSGGSISRSHYYWGWIRQPPGKGLEWIGSIYYNGSTYYNPSLRSRVTISVDTTKNQFSLKLSSVTAADTAEYYCARPGPSYYDRSGYNRAEYFQHWGQGTLVTVSS
VL: IRMTQSPSSLSASVGDRVTITCQASQDISNYLNWYQQKPGKAPKLLIYDASNLETGVPPRFSGSGSGTDFTFTISSLQPEDFATYSCQQYDNLPLTFGGGTKVEIK
Question: Which “neutralisation IC50” value [1] does the source give for B5 here?
Answer: 0.0513 µg/mL

Question: Does B5 bind [2]?
Answer: binds

B6: JR186 (antibody, V domains shown)
VH: EVQLLESGGGLIPPGGSLRLSCAASGFTFSSYAMSWVRQAPGKGLEWVSGISGSGTDTDEGDSVKGRFTISRDNSKNTLWLQIHTLRVEDTAIYYCAKASRGYVSNFDYFDRWGQGTLVTVSS
VL: SYELTQPPSVSVAPGETAKITCGGDNIGTKSVHWYLQKAGQAPVLVISDDSNRPSGIPERFSGSNSGNTATLTINRVEGGDEADYYCQVWTSFGAGTRVTVI
Question: Which results are given for B6?
Answer: neutralisation IC50, Wuhan-Hu-1 pseudovirus [1]: 0.0742 µg/mL; binding result [2]: binds

B7: JR209 (antibody, V domains shown)
VH: EVQLLESGGGLVQPGQSLRLYCAASGFTFSSHGMSWVRQAPGKGLEWVSSISSSGGRTYDADSVKGRFTISRDNSENTVYLQMNSLRVADTAVYYCVKENGPHRWSGEVHGMDVWGQGTTVTVSS
VL: QSVLTQPPSVSGAPGQRVTISCTGSSSNIGTGYDVHWYQHLPGTAPKLLIYDNNNRPSGVPDRFSGSKSATSASLAITGLQAEDEGDYYCQSYDTSLSGLAFGGGTKLTVL
Question: Which results are given for B7?
Answer: neutralisation IC50, Wuhan-Hu-1 pseudovirus [1]: 0.0901 µg/mL; binding result [2]: binds

B8: JR206 (antibody, V domains shown)
VH: EVQLVQSGAEVKKPGESLKISCKGSGFNFSRYWIGWVRQMPGKGLEWMGIIYLGDSDTTYSPSFQGQVTISADKSISTAYLQWSSLKASDTAMFYCATRSGYFYGYETWGQGTLVTVSS
VL: SYELTQPPSVSVAPGKTAKITCGGNNIGSKTVHWYQQRPGQAPVLVVYDNRDRPSGIPERFSGSNSGNTAALTISRVEAGDEADYYCQVWDSSSDHYVFGTGTKVTVL
Question: B8 was tested. Which “neutralisation IC50” value [1] did it give?
Answer: 0.137 µg/mL

Question: Does B8 bind [2]?
Answer: binds

B9: JR050 (antibody, V domains shown)
VH: QVQLVQSGAEVKKPGASVKVSCKTSGDTFTNHYMHWVRQAPGQGLEWMGIINPSAGSTSYAQKFQGRVTMTRDTSTSTVYMELSSLRSEDTAVYYCARDIVFIPALDAFDIWGQGTMVTVSS
VL: EIVLTQSPATLSLSPGERATLSCRASQSVSSYLAWYQQKPGQAPRLLIYDTSNRATGIPARFSGSGSGTDFTLTISSLEPEDFAVYYCQQRRNWPPMYTFGQGTKLEIK
Question: For B9, which “neutralisation IC50” value [1] is on record?
Answer: > 1 µg/mL

Question: Does B9 bind [2]?
Answer: binds

B10: JR053 (antibody, V domains shown)
VH: QVQLVQSGAEVKKPGASVKVSCKASGYTFTSHYMHWVRQAPGQGLEWMGIINPSGGSTSHAQKFQGRVTLTSDTSTSTVYMELSSLRSEDTAVYYCARDLSFIPSIAWNCGYWGQGTLVTVSS
VL: QSALTQPASVSGSPGQSITISCTGTSSDVGGYNYVSWYQQHPGKAPKLMIYDVSDRPSGVSNRFSGSKSGNTASLTISGLQAEDEADYYCSSYTSSSSYVFGTGTKVTVL
Question: How did the “neutralisation IC50” value [1] turn out when B10 was run?
Answer: > 1 µg/mL

Question: Does B10 bind [2]?
Answer: binds

B11: JR060 (antibody, V domains shown)
VH: QVQLVQSGAEVKKPGASVRVSCKASGYTFNNYGIIWVRQAPGQGLEWVGWISAYNANTNYAQKLQGRVSMTTDTPTSTVYMELRSLRSDDTAVYYCASGLGAAGTEPPSDYWGQGTLVTVSS
VL: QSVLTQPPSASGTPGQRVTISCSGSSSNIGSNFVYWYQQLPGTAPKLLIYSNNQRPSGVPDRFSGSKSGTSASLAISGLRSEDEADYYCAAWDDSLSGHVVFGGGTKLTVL
Question: Which “neutralisation IC50” value [1] does the source give for B11 here?
Answer: > 1 µg/mL

Question: Does B11 bind [2]?
Answer: binds

B12: JR065 (antibody, V domains shown)
VH: VQLVESGGGVAQPGRSLRLSCAASGFTFSHYGMHWVRQGPGKGLEWVAGISFDGSDKYYADSVKGRFTISRDNSKNTFYLQMNSLRTDDTAVFYCAKQGFGYGSGWYYFDYWGQGTLVTVSS
VL: IRMTQSPSSLSASVGDRVTITCQASQDISKYLNWYQQRPGKAPKPLIYDASNLETGVPSRFSGSGSGTDFTLTITNLQPEDIATYYCQQYDNVPSVTFGQGTRLEIK
Question: What does the source list for B12?
Answer: neutralisation IC50, Wuhan-Hu-1 pseudovirus [1]: > 1 µg/mL; binding result [2]: binds

B13: JR068 (antibody, V domains shown)
VH: QVQLQESGPGLVKPSQTLSLTCTVFGGSIRSGDYYWSWIRQPPGKGLEWMGYIYSSGSAYYNPSLESRVTISIDASKNQFSLKVNSVTAADTAVYYCARDGFWFGFGSFDIWGLGTMVTVSS
VL: EIVMTQSPATLSVSPGERAALSCRASQSVSSNLAWYQQRVGQAPRLLIYGASTRATGIPARFSGSGSGTEFTLTISSLQSEDFAVYYCQQYNNWPPLTFGGGTKVEIK
Question: How did the “neutralisation IC50” value [1] turn out when B13 was run?
Answer: > 1 µg/mL

Question: Does B13 bind [2]?
Answer: binds

B14: JR069 (antibody, V domains shown)
VH: EVQLVESGGGLVQPGGSLRLSCAASGFSFSNYDMLWLRQITGRGLEWVSLIGTSGDTYYSDSVKGRFTISRENGKNSLYLQMNRLRAGDTAVYYCARGNFDTSGFYSYFDTWGQGTLVTVSS
VL: DIQLTQSPSYLSASVGDRVTITCRASQTIKNYLNWYQQKPGKAPKLLIYAVSTLQNGVSSRFRGSGSGTDFTLTISSLQPEDFATYYCQQSYTIPPYTFGQGTKLEIK
Question: Which “neutralisation IC50” value [1] does the source give for B14 here?
Answer: > 1 µg/mL

Question: Does B14 bind [2]?
Answer: binds

B15: JR072 (antibody, V domains shown)
VH: VQLVESGGGVVQPGRSLRLSCAASGFTFSTYGMHWVRQAPGKGLEWVAGISYDGSDKYYGDSVRGRFTVSRDNSKNTLYLQMNSLRAEDTAVYYCAKGQGPYCSAGNCYTHYFDYWGQGTLVTVSS
VL: EIVLTQSPATLSLSPGERATLSCRASQSVGNYLAWYQQKPGQAPRLLIDDASNRAAGTPARFSGSGSGTDFTLTISSLEPEDFAVYYCQQRSNWPPITFGQGTRLEIK
Question: B15 was tested. Which “neutralisation IC50” value [1] did it give?
Answer: > 1 µg/mL

Question: Does B15 bind [2]?
Answer: binds
